# Assay results: paper PMC6086383
# B1: HuBChE (Homo sapiens) (protein)
# chain: EDDIIIATKNGKVRGMNLTVFGGTVTAFLGIPYAQPPLGRLRFKKPQSLTKWSDIWNATKYANSCCQNIDQSFPGFHGSEMWNPNTDLSEDCLYLNVWIPAPKPKNATVLIWIYGGGFQTGTSSLHVYDGKFLARVERVIVVSMNYRVGALGFLALPGNPEAPGNMGLFDQQLALQWVQKNIAAFGGNPKSVTLFGESAGAASVSLHLLSPGSHSLFTRAILQSGSFNAPWAVTSLYEARNRTLNLAKLTGCSRENETEIIKCLRNKDPQEILLNEAFVVPYGTPLSVNFGPTVDGDFLTDMPDILLELGQFKKTQILVGVNKDEGTAFLVYGAPGFSKDNNSIITRKEFQEGLKIFFPGVSEFGKESILFHYTDWVDDQRPENYREALGDVVGDYNFICPALEFTKKFSEWGNNAFFYYFEHRSSKLPWPEWMGVMHGYEIEFVFGLPLERRDNYTKAEEILSRSIVKRWANFAKYGNPNETQNNSTSWPVFKSTEQKYLTLNTESTRIMTKLRAQQCRFWTSFFPKVLEMTGNIDEAEWEWKAGFHRWNNYMMDWKNQFNDYTSKKESCVGL
# Substrate: CC(=O)SCC[N+](C)(C)C
# Assay: Steady state kinetics of substrate hydrolysis, HuBChE
# Type: biochemical, human
# Conditions: other: HuBChE, equation 1, 50 mM sodium phosphate pH 8.0, 22 °C
protein,measurement,value
B1,Km,0.031 ± 0.004 mM
same,kcat,23±2 x10^3 min^−1
same,kcat/Km,697±14 ×10^3 min^−1 mM^−1
